Biological target: low-density lipoprotein receptor LRP1 on human iPSC-derived cortical excitatory neurons (human (endogenous in iPSC-derived neurons)) (UniProt Q07954)
Sequence of UniProt Q07954 (Q07954 20-4544): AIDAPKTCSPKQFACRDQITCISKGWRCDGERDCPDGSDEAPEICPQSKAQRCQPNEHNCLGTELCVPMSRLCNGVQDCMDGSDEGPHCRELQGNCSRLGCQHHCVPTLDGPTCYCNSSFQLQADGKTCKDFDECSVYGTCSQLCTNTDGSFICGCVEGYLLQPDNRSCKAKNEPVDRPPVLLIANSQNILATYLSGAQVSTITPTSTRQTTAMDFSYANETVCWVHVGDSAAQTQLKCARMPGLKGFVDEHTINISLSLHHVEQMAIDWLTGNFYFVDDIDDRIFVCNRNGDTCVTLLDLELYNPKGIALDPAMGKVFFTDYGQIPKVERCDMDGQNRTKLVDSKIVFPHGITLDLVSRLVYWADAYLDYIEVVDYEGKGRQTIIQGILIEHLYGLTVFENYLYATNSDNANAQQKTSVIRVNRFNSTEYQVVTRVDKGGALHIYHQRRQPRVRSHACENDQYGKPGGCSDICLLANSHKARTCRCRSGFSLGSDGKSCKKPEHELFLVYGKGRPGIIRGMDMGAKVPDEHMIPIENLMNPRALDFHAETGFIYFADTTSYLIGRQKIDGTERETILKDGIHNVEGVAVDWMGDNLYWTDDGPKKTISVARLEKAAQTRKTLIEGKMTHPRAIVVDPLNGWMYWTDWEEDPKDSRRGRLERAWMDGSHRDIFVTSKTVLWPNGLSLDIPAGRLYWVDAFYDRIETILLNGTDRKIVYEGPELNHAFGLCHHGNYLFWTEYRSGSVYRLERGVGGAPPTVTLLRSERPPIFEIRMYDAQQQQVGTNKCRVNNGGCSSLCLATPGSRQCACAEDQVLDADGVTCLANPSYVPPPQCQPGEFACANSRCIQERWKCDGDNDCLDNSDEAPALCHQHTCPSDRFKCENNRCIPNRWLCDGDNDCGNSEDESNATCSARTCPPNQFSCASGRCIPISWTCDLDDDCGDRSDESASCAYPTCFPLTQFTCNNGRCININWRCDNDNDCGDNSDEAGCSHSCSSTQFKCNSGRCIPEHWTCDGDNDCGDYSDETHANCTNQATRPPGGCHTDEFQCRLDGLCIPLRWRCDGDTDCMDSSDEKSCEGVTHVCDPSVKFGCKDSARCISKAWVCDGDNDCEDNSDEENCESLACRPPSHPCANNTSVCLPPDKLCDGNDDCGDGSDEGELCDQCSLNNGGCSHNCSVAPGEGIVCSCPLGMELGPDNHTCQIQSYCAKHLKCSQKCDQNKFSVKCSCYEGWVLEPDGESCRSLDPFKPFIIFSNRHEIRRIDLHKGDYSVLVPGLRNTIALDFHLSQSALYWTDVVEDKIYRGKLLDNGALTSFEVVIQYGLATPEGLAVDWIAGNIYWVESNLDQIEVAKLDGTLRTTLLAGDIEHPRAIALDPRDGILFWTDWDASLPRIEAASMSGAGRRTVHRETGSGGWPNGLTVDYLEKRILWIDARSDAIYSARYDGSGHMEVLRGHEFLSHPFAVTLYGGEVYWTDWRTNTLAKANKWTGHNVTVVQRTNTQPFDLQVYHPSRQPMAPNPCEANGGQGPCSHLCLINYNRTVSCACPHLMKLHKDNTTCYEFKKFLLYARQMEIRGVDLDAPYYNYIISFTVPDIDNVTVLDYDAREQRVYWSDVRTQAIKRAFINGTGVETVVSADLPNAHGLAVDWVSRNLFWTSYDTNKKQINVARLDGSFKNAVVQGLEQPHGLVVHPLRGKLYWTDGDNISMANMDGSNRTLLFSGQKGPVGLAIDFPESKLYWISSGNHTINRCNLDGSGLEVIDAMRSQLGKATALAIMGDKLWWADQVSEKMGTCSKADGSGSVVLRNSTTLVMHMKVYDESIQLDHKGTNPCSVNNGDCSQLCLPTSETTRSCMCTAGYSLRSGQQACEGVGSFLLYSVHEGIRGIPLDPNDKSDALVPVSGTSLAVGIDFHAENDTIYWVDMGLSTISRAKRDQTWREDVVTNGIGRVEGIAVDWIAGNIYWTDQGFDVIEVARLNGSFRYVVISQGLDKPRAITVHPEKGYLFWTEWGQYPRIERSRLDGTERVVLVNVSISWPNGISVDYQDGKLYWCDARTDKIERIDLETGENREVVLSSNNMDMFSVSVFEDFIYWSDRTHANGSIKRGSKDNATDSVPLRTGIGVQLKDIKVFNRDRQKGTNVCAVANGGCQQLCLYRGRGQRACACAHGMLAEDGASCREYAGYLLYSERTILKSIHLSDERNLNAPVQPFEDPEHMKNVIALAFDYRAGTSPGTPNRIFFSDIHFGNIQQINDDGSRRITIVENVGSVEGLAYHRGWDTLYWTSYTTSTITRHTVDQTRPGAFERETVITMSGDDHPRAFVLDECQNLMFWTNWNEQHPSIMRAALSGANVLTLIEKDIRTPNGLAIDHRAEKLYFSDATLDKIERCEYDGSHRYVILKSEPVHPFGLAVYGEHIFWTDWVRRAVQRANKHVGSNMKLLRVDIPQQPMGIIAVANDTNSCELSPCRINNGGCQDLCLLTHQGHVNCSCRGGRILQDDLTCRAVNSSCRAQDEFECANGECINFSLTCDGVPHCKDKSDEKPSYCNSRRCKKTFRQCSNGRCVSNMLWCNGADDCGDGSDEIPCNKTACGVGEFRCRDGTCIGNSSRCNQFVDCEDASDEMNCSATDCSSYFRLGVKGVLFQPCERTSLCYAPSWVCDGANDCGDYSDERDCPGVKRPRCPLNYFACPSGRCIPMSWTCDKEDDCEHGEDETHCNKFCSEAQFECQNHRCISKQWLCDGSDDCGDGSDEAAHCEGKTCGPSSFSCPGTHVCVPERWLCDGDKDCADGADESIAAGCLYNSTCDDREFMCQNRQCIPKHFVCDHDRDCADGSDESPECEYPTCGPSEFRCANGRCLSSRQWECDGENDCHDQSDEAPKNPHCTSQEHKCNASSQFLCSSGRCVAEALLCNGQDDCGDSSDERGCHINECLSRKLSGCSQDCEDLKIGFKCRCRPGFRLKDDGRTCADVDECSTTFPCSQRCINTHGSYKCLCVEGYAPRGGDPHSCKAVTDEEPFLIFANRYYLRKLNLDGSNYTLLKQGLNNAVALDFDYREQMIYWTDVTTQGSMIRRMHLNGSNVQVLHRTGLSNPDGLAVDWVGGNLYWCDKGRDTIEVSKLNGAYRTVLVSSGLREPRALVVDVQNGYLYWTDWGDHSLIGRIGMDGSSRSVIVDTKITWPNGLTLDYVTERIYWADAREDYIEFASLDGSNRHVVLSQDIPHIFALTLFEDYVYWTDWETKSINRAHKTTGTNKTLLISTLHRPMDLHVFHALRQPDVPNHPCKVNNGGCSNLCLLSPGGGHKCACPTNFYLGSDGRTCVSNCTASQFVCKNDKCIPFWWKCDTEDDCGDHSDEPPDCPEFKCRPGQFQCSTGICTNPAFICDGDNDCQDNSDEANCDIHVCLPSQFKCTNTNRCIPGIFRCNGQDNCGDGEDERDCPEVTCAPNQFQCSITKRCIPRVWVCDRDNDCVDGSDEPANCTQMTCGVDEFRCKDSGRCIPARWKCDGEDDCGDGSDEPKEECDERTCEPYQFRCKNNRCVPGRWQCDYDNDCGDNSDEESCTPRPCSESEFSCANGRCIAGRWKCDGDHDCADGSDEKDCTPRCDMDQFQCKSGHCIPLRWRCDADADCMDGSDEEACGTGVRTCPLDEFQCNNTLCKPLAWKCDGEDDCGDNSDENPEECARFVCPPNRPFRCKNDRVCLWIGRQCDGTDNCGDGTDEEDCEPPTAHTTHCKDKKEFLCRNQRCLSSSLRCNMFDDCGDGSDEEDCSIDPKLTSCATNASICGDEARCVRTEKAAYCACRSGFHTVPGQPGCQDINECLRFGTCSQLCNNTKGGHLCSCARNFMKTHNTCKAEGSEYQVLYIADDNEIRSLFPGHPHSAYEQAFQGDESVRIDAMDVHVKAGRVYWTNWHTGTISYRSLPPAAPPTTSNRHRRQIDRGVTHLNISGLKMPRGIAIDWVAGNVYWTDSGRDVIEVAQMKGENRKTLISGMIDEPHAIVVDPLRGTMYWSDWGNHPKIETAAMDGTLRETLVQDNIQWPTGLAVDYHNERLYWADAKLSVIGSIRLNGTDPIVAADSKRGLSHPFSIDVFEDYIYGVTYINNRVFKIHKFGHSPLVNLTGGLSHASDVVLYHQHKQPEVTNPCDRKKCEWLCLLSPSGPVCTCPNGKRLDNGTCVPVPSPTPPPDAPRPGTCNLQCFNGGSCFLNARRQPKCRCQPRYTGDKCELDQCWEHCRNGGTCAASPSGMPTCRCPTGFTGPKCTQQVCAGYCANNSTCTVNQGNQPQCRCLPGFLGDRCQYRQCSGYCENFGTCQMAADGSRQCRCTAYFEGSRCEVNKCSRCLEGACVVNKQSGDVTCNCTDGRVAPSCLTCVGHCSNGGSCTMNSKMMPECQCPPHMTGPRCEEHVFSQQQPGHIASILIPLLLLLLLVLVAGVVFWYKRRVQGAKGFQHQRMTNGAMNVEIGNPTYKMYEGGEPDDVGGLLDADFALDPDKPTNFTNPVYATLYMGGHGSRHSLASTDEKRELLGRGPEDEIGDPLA

## monomeric tau P301S (tau P301S_FLAG×3_10×his-tag), pHrodo-labelled (natural protein)
  decrease in neuronal uptake of monomeric tau-pHrodo (tau-positive objects, live imaging over 4 h) with 100 nM soluble recombinant LRP1 domain IV (Human LRP1 Cluster IV Fc Chimera, R&D Systems) added: 68%
  neuronal uptake of monomeric tau-pHrodo (tau-positive objects, live imaging over 4 h) with 10 nM RAP chaperone (Human LRPAP Protein, R&D Systems) added to block LDL receptors: 63%

— publication PMC12436637
